# US9993529B2, “Stable formulations of a hyaluronan-degrading enzyme” (Halozyme, Inc., priority 2011, dated 2018)
# Assay: RP-HPLC insulin percent purity
# Assay type: physicochemical
# Description: Apparent solubility was measured as the percent insulin recovery as compared to the initial formulations/conditions.
# To determine the apparent solubility, the peak area of insulin/insulin analog main peak and desamido peak were integrated and combined together to calculate the percentage relative to the standards. […] The data were processed using Design-Expert® 7.0 (StatEase) and the “historical data” feature. Insulin percent purity was expressed as the percent of main insulin versus all insulin species.
substance,measurement,setting,value
"Regular Insulin: mature human insulin, SEQ ID NOS: 103 and 104",Percent of insulin main peak,"50 mM NaCl, pH 7.0, 0 months at 2-8° C.",97.64%
same,Percent of insulin main peak,"50 mM NaCl, pH 7.0, 0.25 months at 2-8° C.",97.59%
same,Percent of insulin main peak,"50 mM NaCl, pH 7.0, 0.5 months at 2-8° C.",97.50%
same,Percent of insulin main peak,"50 mM NaCl, pH 7.0, 1 month at 2-8° C.",97.44%
same,Percent of insulin main peak,"50 mM NaCl, pH 7.0, 3 months at 2-8° C.",97.24%
same,Percent of insulin main peak,"50 mM NaCl, pH 7.0, 5 months at 2-8° C.",97.73%
same,Percent of insulin main peak,"50 mM NaCl, pH 7.0, 9 months at 2-8° C.",97.20%
same,Percent of insulin main peak,"50 mM NaCl, pH 7.2, 0 months at 2-8° C.",97.64%
same,Percent of insulin main peak,"50 mM NaCl, pH 7.2, 0.25 months at 2-8° C.",97.59%
same,Percent of insulin main peak,"50 mM NaCl, pH 7.2, 0.5 months at 2-8° C.",97.56%
same,Percent of insulin main peak,"50 mM NaCl, pH 7.2, 1 month at 2-8° C.",97.46%
same,Percent of insulin main peak,"50 mM NaCl, pH 7.2, 3 months at 2-8° C.",97.47%
same,Percent of insulin main peak,"50 mM NaCl, pH 7.2, 5 months at 2-8° C.",97.75%
same,Percent of insulin main peak,"50 mM NaCl, pH 7.2, 9 months at 2-8° C.",97.27%
same,Percent of insulin main peak,"50 mM NaCl, pH 7.4, 0 months at 2-8° C.",97.58%
same,Percent of insulin main peak,"50 mM NaCl, pH 7.4, 0.25 months at 2-8° C.",97.54%
same,Percent of insulin main peak,"50 mM NaCl, pH 7.4, 0.5 months at 2-8° C.",97.48%
same,Percent of insulin main peak,"50 mM NaCl, pH 7.4, 1 month at 2-8° C.",97.47%
same,Percent of insulin main peak,"50 mM NaCl, pH 7.4, 3 months at 2-8° C.",97.45%
same,Percent of insulin main peak,"50 mM NaCl, pH 7.4, 5 months at 2-8° C.",97.74%
same,Percent of insulin main peak,"50 mM NaCl, pH 7.4, 9 months at 2-8° C.",97.27%
same,Percent of insulin main peak,"50 mM NaCl, pH 7.6, 0 months at 2-8° C.",97.65%
same,Percent of insulin main peak,"50 mM NaCl, pH 7.6, 0.25 months at 2-8° C.",97.58%
same,Percent of insulin main peak,"50 mM NaCl, pH 7.6, 0.5 months at 2-8° C.",97.33%
same,Percent of insulin main peak,"50 mM NaCl, pH 7.6, 1 month at 2-8° C.",97.44%
same,Percent of insulin main peak,"50 mM NaCl, pH 7.6, 3 months at 2-8° C.",97.35%
same,Percent of insulin main peak,"50 mM NaCl, pH 7.6, 5 months at 2-8° C.",97.66%
same,Percent of insulin main peak,"50 mM NaCl, pH 7.6, 9 months at 2-8° C.",97.34%
same,Percent of insulin main peak,"80 mM NaCl, pH 7.0, 0 months at 2-8° C.",97.65%
same,Percent of insulin main peak,"80 mM NaCl, pH 7.0, 0.25 months at 2-8° C.",97.50%
same,Percent of insulin main peak,"80 mM NaCl, pH 7.0, 0.5 months at 2-8° C.",97.30%
same,Percent of insulin main peak,"80 mM NaCl, pH 7.0, 1 month at 2-8° C.",97.20%
same,Percent of insulin main peak,"80 mM NaCl, pH 7.0, 5 months at 2-8° C.",97.81%
same,Percent of insulin main peak,"80 mM NaCl, pH 7.0, 9 months at 2-8° C.",96.18%
same,Percent of insulin main peak,"80 mM NaCl, pH 7.2, 0 months at 2-8° C.",97.57%
same,Percent of insulin main peak,"80 mM NaCl, pH 7.2, 0.25 months at 2-8° C.",97.59%
same,Percent of insulin main peak,"80 mM NaCl, pH 7.2, 0.5 months at 2-8° C.",97.30%
same,Percent of insulin main peak,"80 mM NaCl, pH 7.2, 1 month at 2-8° C.",97.45%
same,Percent of insulin main peak,"80 mM NaCl, pH 7.2, 3 months at 2-8° C.",97.34%
same,Percent of insulin main peak,"80 mM NaCl, pH 7.2, 5 months at 2-8° C.",97.64%
same,Percent of insulin main peak,"80 mM NaCl, pH 7.4, 0 months at 2-8° C.",97.56%
same,Percent of insulin main peak,"80 mM NaCl, pH 7.4, 0.25 months at 2-8° C.",97.61%
same,Percent of insulin main peak,"80 mM NaCl, pH 7.4, 0.5 months at 2-8° C.",97.51%
same,Percent of insulin main peak,"80 mM NaCl, pH 7.4, 1 month at 2-8° C.",97.43%
same,Percent of insulin main peak,"80 mM NaCl, pH 7.4, 3 months at 2-8° C.",97.43%
same,Percent of insulin main peak,"80 mM NaCl, pH 7.4, 5 months at 2-8° C.",97.75%
same,Percent of insulin main peak,"80 mM NaCl, pH 7.4, 9 months at 2-8° C.",97.29%
same,Percent of insulin main peak,"80 mM NaCl, pH 7.6, 0 months at 2-8° C.",97.63%
same,Percent of insulin main peak,"80 mM NaCl, pH 7.6, 0.25 months at 2-8° C.",97.62%
same,Percent of insulin main peak,"80 mM NaCl, pH 7.6, 0.5 months at 2-8° C.",97.52%
same,Percent of insulin main peak,"80 mM NaCl, pH 7.6, 1 month at 2-8° C.",97.37%
same,Percent of insulin main peak,"80 mM NaCl, pH 7.6, 3 months at 2-8° C.",97.64%
same,Percent of insulin main peak,"80 mM NaCl, pH 7.6, 5 months at 2-8° C.",97.67%
same,Percent of insulin main peak,"80 mM NaCl, pH 7.6, 9 months at 2-8° C.",97.31%
same,Percent of insulin main peak,"110 mM NaCl, pH 7.0, 0 months at 2-8° C.",97.64%
same,Percent of insulin main peak,"110 mM NaCl, pH 7.0, 0.25 months at 2-8° C.",97.31%
same,Percent of insulin main peak,"110 mM NaCl, pH 7.0, 0.5 months at 2-8° C.",97.57%
same,Percent of insulin main peak,"110 mM NaCl, pH 7.0, 1 month at 2-8° C.",96.64%
same,Percent of insulin main peak,"110 mM NaCl, pH 7.0, 3 months at 2-8° C.",96.10%
same,Percent of insulin main peak,"110 mM NaCl, pH 7.0, 5 months at 2-8° C.",97.79%
same,Percent of insulin main peak,"110 mM NaCl, pH 7.2, 0 months at 2-8° C.",97.62%
same,Percent of insulin main peak,"110 mM NaCl, pH 7.2, 0.25 months at 2-8° C.",97.46%
same,Percent of insulin main peak,"110 mM NaCl, pH 7.2, 0.5 months at 2-8° C.",97.35%
same,Percent of insulin main peak,"110 mM NaCl, pH 7.2, 3 months at 2-8° C.",97.49%
same,Percent of insulin main peak,"110 mM NaCl, pH 7.2, 5 months at 2-8° C.",97.61%
same,Percent of insulin main peak,"110 mM NaCl, pH 7.2, 9 months at 2-8° C.",95.91%
same,Percent of insulin main peak,"110 mM NaCl, pH 7.4, 0 months at 2-8° C.",97.65%
same,Percent of insulin main peak,"110 mM NaCl, pH 7.4, 0.25 months at 2-8° C.",97.58%
same,Percent of insulin main peak,"110 mM NaCl, pH 7.4, 0.5 months at 2-8° C.",97.39%
same,Percent of insulin main peak,"110 mM NaCl, pH 7.4, 1 month at 2-8° C.",97.36%
same,Percent of insulin main peak,"110 mM NaCl, pH 7.4, 3 months at 2-8° C.",97.36%
same,Percent of insulin main peak,"110 mM NaCl, pH 7.4, 5 months at 2-8° C.",97.79%
same,Percent of insulin main peak,"110 mM NaCl, pH 7.4, 9 months at 2-8° C.",96.91%
same,Percent of insulin main peak,"110 mM NaCl, pH 7.6, 0 months at 2-8° C.",97.58%
same,Percent of insulin main peak,"110 mM NaCl, pH 7.6, 0.25 months at 2-8° C.",97.57%
same,Percent of insulin main peak,"110 mM NaCl, pH 7.6, 0.5 months at 2-8° C.",97.60%
same,Percent of insulin main peak,"110 mM NaCl, pH 7.6, 1 month at 2-8° C.",97.52%
same,Percent of insulin main peak,"110 mM NaCl, pH 7.6, 3 months at 2-8° C.",97.42%
same,Percent of insulin main peak,"110 mM NaCl, pH 7.6, 5 months at 2-8° C.",97.61%
same,Percent of insulin main peak,"110 mM NaCl, pH 7.6, 9 months at 2-8° C.",97.31%
same,Percent of insulin main peak,"140 mM NaCl, pH 7.0, 0 months at 2-8° C.",97.65%
same,Percent of insulin main peak,"140 mM NaCl, pH 7.0, 0.25 months at 2-8° C.",97.15%
same,Percent of insulin main peak,"140 mM NaCl, pH 7.0, 1 month at 2-8° C.",96.39%
same,Percent of insulin main peak,"140 mM NaCl, pH 7.0, 3 months at 2-8° C.",96.16%
same,Percent of insulin main peak,"140 mM NaCl, pH 7.0, 9 months at 2-8° C.",95.17%
same,Percent of insulin main peak,"140 mM NaCl, pH 7.2, 0 months at 2-8° C.",97.56%
same,Percent of insulin main peak,"140 mM NaCl, pH 7.2, 0.25 months at 2-8° C.",97.37%
same,Percent of insulin main peak,"140 mM NaCl, pH 7.2, 1 month at 2-8° C.",96.62%
same,Percent of insulin main peak,"140 mM NaCl, pH 7.2, 3 months at 2-8° C.",96.60%
same,Percent of insulin main peak,"140 mM NaCl, pH 7.2, 9 months at 2-8° C.",95.49%
same,Percent of insulin main peak,"140 mM NaCl, pH 7.4, 0 months at 2-8° C.",97.64%
same,Percent of insulin main peak,"140 mM NaCl, pH 7.4, 0.25 months at 2-8° C.",97.57%
same,Percent of insulin main peak,"140 mM NaCl, pH 7.4, 0.5 months at 2-8° C.",97.33%
same,Percent of insulin main peak,"140 mM NaCl, pH 7.4, 1 month at 2-8° C.",97.23%
same,Percent of insulin main peak,"140 mM NaCl, pH 7.4, 3 months at 2-8° C.",97.38%
same,Percent of insulin main peak,"140 mM NaCl, pH 7.4, 5 months at 2-8° C.",97.73%
same,Percent of insulin main peak,"140 mM NaCl, pH 7.4, 9 months at 2-8° C.",96.10%
same,Percent of insulin main peak,"140 mM NaCl, pH 7.6, 0 months at 2-8° C.",97.64%
same,Percent of insulin main peak,"140 mM NaCl, pH 7.6, 0.25 months at 2-8° C.",97.61%
same,Percent of insulin main peak,"140 mM NaCl, pH 7.6, 0.5 months at 2-8° C.",97.41%
same,Percent of insulin main peak,"140 mM NaCl, pH 7.6, 1 month at 2-8° C.",97.51%
same,Percent of insulin main peak,"140 mM NaCl, pH 7.6, 3 months at 2-8° C.",97.35%
same,Percent of insulin main peak,"140 mM NaCl, pH 7.6, 5 months at 2-8° C.",97.56%
same,Percent of insulin main peak,"140 mM NaCl, pH 7.6, 9 months at 2-8° C.",97.07%
same,insulin main peak percentage,"regular insulin/rHuPH20, long term storage at 2-8° C.",about 97%
